Test results reported in article PMC7641732, “Structural basis of prostate-specific membrane antigen recognition by the A9g RNA aptamer”.

Target: human PSMA extracellular part (wtPSMA) (human, UniProt Q04609 44-750)
Assay: X-ray crystallography 2.2 A; 2-PMPA, active-site Zn2+; IC50: 20 mM Tris, 150 mM NaCl, pH 8.0, 37 C preincubation 10 min; flow cytometry: 10 mM Tris, 150 mM NaCl, pH 7.4, 0.5% fish gelatin (inhibitor preincubation 4)
Details: protein: recombinant; tags: N-terminal Strep-FLAG; chain copies: 2; stem-loop: S1 7 bp, 4x1 internal loop, S2 4 bp, 16-nt hairpin loop

human PSMA extracellular part (wtPSMA), sequence (Q04609 44-750): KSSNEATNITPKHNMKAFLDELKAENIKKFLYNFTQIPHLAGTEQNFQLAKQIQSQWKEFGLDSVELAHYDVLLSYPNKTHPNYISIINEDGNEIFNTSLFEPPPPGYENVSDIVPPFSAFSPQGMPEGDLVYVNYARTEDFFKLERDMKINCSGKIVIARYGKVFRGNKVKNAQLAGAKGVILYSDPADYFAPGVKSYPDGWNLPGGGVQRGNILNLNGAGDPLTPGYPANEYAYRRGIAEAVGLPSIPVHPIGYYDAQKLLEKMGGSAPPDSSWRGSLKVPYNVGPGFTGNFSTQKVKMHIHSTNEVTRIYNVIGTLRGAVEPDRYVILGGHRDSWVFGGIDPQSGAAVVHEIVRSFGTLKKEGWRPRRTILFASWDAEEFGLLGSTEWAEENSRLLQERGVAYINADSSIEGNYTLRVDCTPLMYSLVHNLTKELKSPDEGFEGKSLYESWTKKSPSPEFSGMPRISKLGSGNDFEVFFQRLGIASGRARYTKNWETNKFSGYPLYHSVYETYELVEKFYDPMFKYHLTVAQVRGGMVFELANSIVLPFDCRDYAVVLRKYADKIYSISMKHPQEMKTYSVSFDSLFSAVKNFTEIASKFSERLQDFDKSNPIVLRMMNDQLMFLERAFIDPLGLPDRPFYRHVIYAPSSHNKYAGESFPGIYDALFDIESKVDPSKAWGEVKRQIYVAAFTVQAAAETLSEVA

B1: A9g (structured_RNA)
RNA: GGGACCGAAAAAGACCUGACUUCUAUACUAAGUCUACGUUCCC
modifications: 2'-deoxy-2'-fluoro on all C and U
Question: Does B1 bind?
Answer: binds
